Source: patent publication US20130005646A1 (Novo Nordisk, published 2013)
Starred links: 1 amine or outer side, 2 acyl side, 3 side chain; linkers in the order of their positions; H or OH if unused. Positions of bridges follow the written chain, without caps; N, C: chain ends. Groups on a side chain read outwards from the residue. No end group written: not given here. *: point of attachment. C20 diacid = O=C(O)CCCCCCCCCCCCCCCCCCC(=O)*; C18 diacid = O=C(O)CCCCCCCCCCCCCCCCC(=O)*; γGlu = O=C(O)[C@H](CCC(=O)[*:2])N[*:1]; AEEA = NCCOCCOCC(=O)O

T1: human amylin 3(a) receptor (human calcitonin receptor + RAMP-3) (human, UniProt P30988 25-474; O60896 24-148)
T1 sequence (looked up) 1: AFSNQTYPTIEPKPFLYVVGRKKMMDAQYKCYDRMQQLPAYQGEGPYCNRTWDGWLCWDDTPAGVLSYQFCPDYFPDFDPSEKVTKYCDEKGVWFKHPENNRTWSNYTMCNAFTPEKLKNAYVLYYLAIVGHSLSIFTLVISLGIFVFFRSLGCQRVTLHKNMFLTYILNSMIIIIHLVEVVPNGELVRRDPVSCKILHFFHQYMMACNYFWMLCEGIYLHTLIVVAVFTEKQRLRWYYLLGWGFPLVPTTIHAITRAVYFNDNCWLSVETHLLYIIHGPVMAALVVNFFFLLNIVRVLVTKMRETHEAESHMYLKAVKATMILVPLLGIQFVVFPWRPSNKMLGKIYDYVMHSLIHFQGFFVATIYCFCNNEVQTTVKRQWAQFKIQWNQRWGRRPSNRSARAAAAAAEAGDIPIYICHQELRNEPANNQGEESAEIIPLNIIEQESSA
T1 sequence (looked up) 2: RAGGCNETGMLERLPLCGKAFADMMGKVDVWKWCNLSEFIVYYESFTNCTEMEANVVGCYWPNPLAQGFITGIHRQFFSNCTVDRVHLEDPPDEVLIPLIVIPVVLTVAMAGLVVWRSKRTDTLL

T2: rat calcitonin (a) receptor (rat, UniProt P32214 25-516)
T2 sequence (looked up): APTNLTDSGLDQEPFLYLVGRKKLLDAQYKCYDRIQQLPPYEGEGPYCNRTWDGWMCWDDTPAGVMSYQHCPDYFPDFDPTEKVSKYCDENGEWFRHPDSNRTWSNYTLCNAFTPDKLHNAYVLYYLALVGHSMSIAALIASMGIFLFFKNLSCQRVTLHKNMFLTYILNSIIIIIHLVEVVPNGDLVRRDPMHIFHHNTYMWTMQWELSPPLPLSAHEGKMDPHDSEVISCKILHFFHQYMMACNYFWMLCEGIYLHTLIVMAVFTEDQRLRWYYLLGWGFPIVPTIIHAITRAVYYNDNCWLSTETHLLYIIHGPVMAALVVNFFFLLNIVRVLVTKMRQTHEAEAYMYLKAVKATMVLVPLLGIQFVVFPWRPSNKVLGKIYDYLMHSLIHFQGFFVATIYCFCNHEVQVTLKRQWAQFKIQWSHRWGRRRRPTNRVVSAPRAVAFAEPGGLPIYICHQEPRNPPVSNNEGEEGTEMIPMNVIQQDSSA

T3: rat amylin 3(a) receptor (rat calcitonin(a) receptor + rat RAMP3) (rat, UniProt P32214 25-516; Q9JJ73 23-147)
T3 sequence (looked up) 1: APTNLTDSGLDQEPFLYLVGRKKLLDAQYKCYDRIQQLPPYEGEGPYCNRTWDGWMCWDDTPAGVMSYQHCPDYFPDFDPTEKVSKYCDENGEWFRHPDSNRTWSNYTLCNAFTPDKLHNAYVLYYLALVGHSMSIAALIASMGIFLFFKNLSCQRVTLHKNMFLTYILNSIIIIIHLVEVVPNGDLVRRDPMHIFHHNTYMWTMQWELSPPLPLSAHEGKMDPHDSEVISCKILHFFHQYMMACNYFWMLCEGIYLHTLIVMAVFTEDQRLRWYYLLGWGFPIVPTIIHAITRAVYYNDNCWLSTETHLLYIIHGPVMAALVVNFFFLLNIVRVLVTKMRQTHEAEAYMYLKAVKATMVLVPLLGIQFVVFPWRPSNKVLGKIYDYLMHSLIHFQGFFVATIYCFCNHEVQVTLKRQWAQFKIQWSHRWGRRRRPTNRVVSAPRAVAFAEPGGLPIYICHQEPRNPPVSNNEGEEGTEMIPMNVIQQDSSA
T3 sequence (looked up) 2: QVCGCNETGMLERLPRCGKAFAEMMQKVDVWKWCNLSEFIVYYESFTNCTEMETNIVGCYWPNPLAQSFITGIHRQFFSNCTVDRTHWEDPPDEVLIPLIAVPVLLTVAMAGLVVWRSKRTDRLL

T4: human calcitonin (a) receptor (human, UniProt P30988 25-474)
T4 sequence (looked up): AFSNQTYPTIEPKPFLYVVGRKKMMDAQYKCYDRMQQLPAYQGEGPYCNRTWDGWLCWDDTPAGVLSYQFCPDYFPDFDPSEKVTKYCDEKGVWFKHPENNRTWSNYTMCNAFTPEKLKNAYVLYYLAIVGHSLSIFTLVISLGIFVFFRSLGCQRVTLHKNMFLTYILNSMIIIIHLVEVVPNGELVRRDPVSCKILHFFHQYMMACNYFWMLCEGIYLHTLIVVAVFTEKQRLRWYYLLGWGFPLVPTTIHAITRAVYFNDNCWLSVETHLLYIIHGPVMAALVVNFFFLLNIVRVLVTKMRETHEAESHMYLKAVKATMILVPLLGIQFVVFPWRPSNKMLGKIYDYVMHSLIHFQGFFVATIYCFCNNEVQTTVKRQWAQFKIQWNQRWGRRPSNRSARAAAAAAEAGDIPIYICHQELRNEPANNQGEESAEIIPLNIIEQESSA


What was measured:
Assay in all cases: cell-based or functional assay
[1] = target: T1, human amylin 3(a) receptor (human …)
[2] = target: T2, rat calcitonin (a) receptor
[3] = target: T3, rat amylin 3(a) receptor (rat …)
[4] = target: T4, human calcitonin (a) receptor

Amylin receptor human EC50 [1] [pM]	CTa receptor rat EC50 [2] [pM]	Amylin receptor rat EC50 [3] [pM]	CTa receptor human EC50 [4] [pM]	Binder
25.5	114	151	39.5	{C20 diacid-γGlu}-GHCNTATCATQRLAEFLRHSSNNFGPILPPTNVGSNTP-NH2 (disulfide 3-8; SMILES CC[C@H](C)[C@H](NC(=O)[C@@H]1CCCN1C(=O)CNC(=O)[C@H](Cc1ccccc1)NC(=O)[C@H](CC(N)=O)NC(=O)[C@H](CC(N)=O)NC(=O)[C@H](CO)NC(=O)[C@H](CO)NC(=O)[C@H](Cc1c[nH]cn1)NC(=O)[C@H](CCCNC(=N)N)NC(=O)[C@H](CC(C)C)NC(=O)[C@H](Cc1ccccc1)NC(=O)[C@H](CCC(=O)O)NC(=O)[C@H](C)NC(=O)[C@H](CC(C)C)NC(=O)[C@H](CCCNC(=N)N)NC(=O)[C@H](CCC(N)=O)NC(=O)[C@@H](NC(=O)[C@H](C)NC(=O)[C@@H]1CSSC[C@H](NC(=O)[C@H](Cc2c[nH]cn2)NC(=O)CNC(=O)CC[C@H](NC(=O)CCCCCCCCCCCCCCCCCCC(=O)O)C(=O)O)C(=O)N[C@@H](CC(N)=O)C(=O)N[C@@H]([C@@H](C)O)C(=O)N[C@@H](C)C(=O)N[C@@H]([C@@H](C)O)C(=O)N1)[C@@H](C)O)C(=O)N[C@@H](CC(C)C)C(=O)N1CCC[C@H]1C(=O)N1CCC[C@H]1C(=O)N[C@H](C(=O)N[C@@H](CC(N)=O)C(=O)N[C@H](C(=O)NCC(=O)N[C@@H](CO)C(=O)N[C@@H](CC(N)=O)C(=O)N[C@H](C(=O)N1CCC[C@H]1C(N)=O)[C@@H](C)O)C(C)C)[C@@H](C)O)
92.5	109	121	67	{C20 diacid-γGlu}-HCNTATCATQRLAEFLHHSSNNFGPILPPTNVGSNTP-NH2 (disulfide 2-7; not fully specified; printed as N-alpha-[(S)-4-Carboxy-4-(19-carboxynonadecanoylamino)butyryl]-[His1,Glu14,His17,Pro37]-pramlintide) [N-alpha-[(S)-4-Carboxy-4-(19-carboxynonadecanoylamino)butyryl]-[His1,Glu14,His17,Pro37]-pramlintide]
142	437	106	228	K([γGlu-C20 diacid])CNTATCATQRLAEFLHHSSNNFGPILPPTNVGSHTY-NH2 (disulfide 2-7; N-terminus assumed; SMILES CC[C@H](C)[C@H](NC(=O)[C@@H]1CCCN1C(=O)CNC(=O)[C@H](Cc1ccccc1)NC(=O)[C@H](CC(N)=O)NC(=O)[C@H](CC(N)=O)NC(=O)[C@H](CO)NC(=O)[C@H](CO)NC(=O)[C@H](Cc1c[nH]cn1)NC(=O)[C@H](Cc1c[nH]cn1)NC(=O)[C@H](CC(C)C)NC(=O)[C@H](Cc1ccccc1)NC(=O)[C@H](CCC(=O)O)NC(=O)[C@H](C)NC(=O)[C@H](CC(C)C)NC(=O)[C@H](CCCNC(=N)N)NC(=O)[C@H](CCC(N)=O)NC(=O)[C@@H](NC(=O)[C@H](C)NC(=O)[C@@H]1CSSC[C@H](NC(=O)[C@@H](N)CCCCNC(=O)CC[C@H](NC(=O)CCCCCCCCCCCCCCCCCCC(=O)O)C(=O)O)C(=O)N[C@@H](CC(N)=O)C(=O)N[C@@H]([C@@H](C)O)C(=O)N[C@@H](C)C(=O)N[C@@H]([C@@H](C)O)C(=O)N1)[C@@H](C)O)C(=O)N[C@@H](CC(C)C)C(=O)N1CCC[C@H]1C(=O)N1CCC[C@H]1C(=O)N[C@H](C(=O)N[C@@H](CC(N)=O)C(=O)N[C@H](C(=O)NCC(=O)N[C@@H](CO)C(=O)N[C@@H](Cc1c[nH]cn1)C(=O)N[C@H](C(=O)N[C@@H](Cc1ccc(O)cc1)C(N)=O)[C@@H](C)O)C(C)C)[C@@H](C)O) [N-epsilon1-[(S)-4-Carboxy-4-(19-carboxynonadecanoylamino)butyryl]-[Glu14,His17,His35]-pramlintide]
36	370	300	55	{C20 diacid-γGlu}-GCNTATCATQRLAEFLRHSSNNFGPILPPTNVGSNTP-NH2 (disulfide 2-7; SMILES CC[C@H](C)[C@H](NC(=O)[C@@H]1CCCN1C(=O)CNC(=O)[C@H](Cc1ccccc1)NC(=O)[C@H](CC(N)=O)NC(=O)[C@H](CC(N)=O)NC(=O)[C@H](CO)NC(=O)[C@H](CO)NC(=O)[C@H](Cc1c[nH]cn1)NC(=O)[C@H](CCCNC(=N)N)NC(=O)[C@H](CC(C)C)NC(=O)[C@H](Cc1ccccc1)NC(=O)[C@H](CCC(=O)O)NC(=O)[C@H](C)NC(=O)[C@H](CC(C)C)NC(=O)[C@H](CCCNC(=N)N)NC(=O)[C@H](CCC(N)=O)NC(=O)[C@@H](NC(=O)[C@H](C)NC(=O)[C@@H]1CSSC[C@H](NC(=O)CNC(=O)CC[C@H](NC(=O)CCCCCCCCCCCCCCCCCCC(=O)O)C(=O)O)C(=O)N[C@@H](CC(N)=O)C(=O)N[C@@H]([C@@H](C)O)C(=O)N[C@@H](C)C(=O)N[C@@H]([C@@H](C)O)C(=O)N1)[C@@H](C)O)C(=O)N[C@@H](CC(C)C)C(=O)N1CCC[C@H]1C(=O)N1CCC[C@H]1C(=O)N[C@H](C(=O)N[C@@H](CC(N)=O)C(=O)N[C@H](C(=O)NCC(=O)N[C@@H](CO)C(=O)N[C@@H](CC(N)=O)C(=O)N[C@H](C(=O)N1CCC[C@H]1C(N)=O)[C@@H](C)O)C(C)C)[C@@H](C)O) [N-alpha-[(S)-4-Carboxy-4-(19-carboxynonadecanoylamino)butyryl]-[Gly1,Glu14,Arg17,Pro37]-pramlintide]
122	1040	224	85.5	{C20 diacid-γGlu}-HCNTATCATQRLAEFLHHSSNNFGPILPPTNVGSHTY-NH2 (disulfide 2-7; not fully specified; printed as N-alpha-[(S)-4-Carboxy-4-(19-carboxynonadecanoylamino)butyryl]-[His1,Glu14,His17,His35]-pramlintide) [N-alpha-[(S)-4-Carboxy-4-(19-carboxynonadecanoylamino)butyryl]-[His1,Glu14,His17,His35]-pramlintide]
184	2060	504	216	KCNTATCATQRLAEFLHHSSK([AEEA-AEEA-γGlu-C18 diacid])NFGPILPPTNVGSETY-NH2 (disulfide 2-7; N-terminus assumed; SMILES CC[C@H](C)[C@H](NC(=O)[C@@H]1CCCN1C(=O)CNC(=O)[C@H](Cc1ccccc1)NC(=O)[C@H](CC(N)=O)NC(=O)[C@H](CCCCNC(=O)COCCOCCNC(=O)COCCOCCNC(=O)CC[C@H](NC(=O)CCCCCCCCCCCCCCCCC(=O)O)C(=O)O)NC(=O)[C@H](CO)NC(=O)[C@H](CO)NC(=O)[C@H](Cc1c[nH]cn1)NC(=O)[C@H](Cc1c[nH]cn1)NC(=O)[C@H](CC(C)C)NC(=O)[C@H](Cc1ccccc1)NC(=O)[C@H](CCC(=O)O)NC(=O)[C@H](C)NC(=O)[C@H](CC(C)C)NC(=O)[C@H](CCCNC(=N)N)NC(=O)[C@H](CCC(N)=O)NC(=O)[C@@H](NC(=O)[C@H](C)NC(=O)[C@@H]1CSSC[C@H](NC(=O)[C@@H](N)CCCCN)C(=O)N[C@@H](CC(N)=O)C(=O)N[C@@H]([C@@H](C)O)C(=O)N[C@@H](C)C(=O)N[C@@H]([C@@H](C)O)C(=O)N1)[C@@H](C)O)C(=O)N[C@@H](CC(C)C)C(=O)N1CCC[C@H]1C(=O)N1CCC[C@H]1C(=O)N[C@H](C(=O)N[C@@H](CC(N)=O)C(=O)N[C@H](C(=O)NCC(=O)N[C@@H](CO)C(=O)N[C@@H](CCC(=O)O)C(=O)N[C@H](C(=O)N[C@@H](Cc1ccc(O)cc1)C(N)=O)[C@@H](C)O)C(C)C)[C@@H](C)O)
